B1: Complement factor H (Homo sapiens), P08603 (parent)
chain: MRLLAKIICLMLWAICVAEDCNELPPRRNTEILTGSWSDQTYPEGTQAIYKCRPGYRSLGNVIMVCRKGEWVALNPLRKCQKRPCGHPGDTPFGTFTLTGGNVFEYGVKAVYTCNEGYQLLGEINYRECDTDGWTNDIPICEVVKCLPVTAPENGKIVSSAMEPDREYHFGQAVRFVCNSGYKIEGDEEMHCSDDGFWSKEKPKCVEISCKSPDVINGSPISQKIIYKENERFQYKCNMGYEYSERGDAVCTESGWRPLPSCEEKSCDNPYIPNGDYSPLRIKHRTGDEITYQCRNGFYPATRGNTAKCTSTGWIPAPRCTLKPCDYPDIKHGGLYHENMRRPYFPVAVGKYYSYYCDEHFETPSGSYWDHIHCTQDGWSPAVPCLRKCYFPYLENGYNQNYGRKFVQGKSIDVACHPGYALPKAQTTVTCMENGWSPTPRCIRVKTCSKSSIDIENGFISESQYTYALKEKAKYQCKLGYVTADGETSGSITCGKDGWSAQPTCIKSCDIPVFMNARTKNDFTWFKLNDTLDYECHDGYESNTGSTTGSIVCGYNGWSDLPICYERECELPKIDVHLVPDRKKDQYKVGEVLKFSCKPGFTIVGPNSVQCYHFGLSPDLPICKEQVQSCGPPPELLNGNVKEKTKEEYGHSEVVEYYCNPRFLMKGPNKIQCVDGEWTTLPVCIVEESTCGDIPELEHGWAQLSSPPYYYGDSVEFNCSESFTMIGHRSITCIHGVWTQLPQCVAIDKLKKCKSSNLIILEEHLKNKKEFDHNSNIRYRCRGKEGWIHTVCINGRWDPEVNCSMAQIQLCPPPPQIPNSHNMTTTLNYRDGEKVSVLCQENYLIQEGEEITCKDGRWQSIPLCVEKIPCSQPPQIEHGTINSSRSSQESYAHGTKLSYTCEGGFRISEENETTCYMGKWSSPPQCEGLPCKSPPEISHGVVAHMSDSYQYGEEVTYKCFEGFGIDGPAIAKCLGEKWSHPPSCIKTDCLSLPSFENAIPMGEKKDVYKAGEQVTYTCATYYKMDGASNVTCINSRWTGRPTCRDTSCVNPPTVQNAYIVSRQMSKYPSGERVRYQCRSPYEMFGDEEVMCLNGNWTEPPQCKDSTGKCGPPPPIDNGDITSFPLSVYAPASSVEYQCQNLYQLEGNKRITCRNGQWSEPPKCLHPCVISREIMENYNIALRWTAKQKLYSRTGESVEFVCKRGYRLSSRSHTLRTTCWDGKLEYPTCAKR

In the assay the parent is B1. The settings on record: with co3_human C3, P01024.
Chain of co3_human C3, P01024 (P01024 whole entry): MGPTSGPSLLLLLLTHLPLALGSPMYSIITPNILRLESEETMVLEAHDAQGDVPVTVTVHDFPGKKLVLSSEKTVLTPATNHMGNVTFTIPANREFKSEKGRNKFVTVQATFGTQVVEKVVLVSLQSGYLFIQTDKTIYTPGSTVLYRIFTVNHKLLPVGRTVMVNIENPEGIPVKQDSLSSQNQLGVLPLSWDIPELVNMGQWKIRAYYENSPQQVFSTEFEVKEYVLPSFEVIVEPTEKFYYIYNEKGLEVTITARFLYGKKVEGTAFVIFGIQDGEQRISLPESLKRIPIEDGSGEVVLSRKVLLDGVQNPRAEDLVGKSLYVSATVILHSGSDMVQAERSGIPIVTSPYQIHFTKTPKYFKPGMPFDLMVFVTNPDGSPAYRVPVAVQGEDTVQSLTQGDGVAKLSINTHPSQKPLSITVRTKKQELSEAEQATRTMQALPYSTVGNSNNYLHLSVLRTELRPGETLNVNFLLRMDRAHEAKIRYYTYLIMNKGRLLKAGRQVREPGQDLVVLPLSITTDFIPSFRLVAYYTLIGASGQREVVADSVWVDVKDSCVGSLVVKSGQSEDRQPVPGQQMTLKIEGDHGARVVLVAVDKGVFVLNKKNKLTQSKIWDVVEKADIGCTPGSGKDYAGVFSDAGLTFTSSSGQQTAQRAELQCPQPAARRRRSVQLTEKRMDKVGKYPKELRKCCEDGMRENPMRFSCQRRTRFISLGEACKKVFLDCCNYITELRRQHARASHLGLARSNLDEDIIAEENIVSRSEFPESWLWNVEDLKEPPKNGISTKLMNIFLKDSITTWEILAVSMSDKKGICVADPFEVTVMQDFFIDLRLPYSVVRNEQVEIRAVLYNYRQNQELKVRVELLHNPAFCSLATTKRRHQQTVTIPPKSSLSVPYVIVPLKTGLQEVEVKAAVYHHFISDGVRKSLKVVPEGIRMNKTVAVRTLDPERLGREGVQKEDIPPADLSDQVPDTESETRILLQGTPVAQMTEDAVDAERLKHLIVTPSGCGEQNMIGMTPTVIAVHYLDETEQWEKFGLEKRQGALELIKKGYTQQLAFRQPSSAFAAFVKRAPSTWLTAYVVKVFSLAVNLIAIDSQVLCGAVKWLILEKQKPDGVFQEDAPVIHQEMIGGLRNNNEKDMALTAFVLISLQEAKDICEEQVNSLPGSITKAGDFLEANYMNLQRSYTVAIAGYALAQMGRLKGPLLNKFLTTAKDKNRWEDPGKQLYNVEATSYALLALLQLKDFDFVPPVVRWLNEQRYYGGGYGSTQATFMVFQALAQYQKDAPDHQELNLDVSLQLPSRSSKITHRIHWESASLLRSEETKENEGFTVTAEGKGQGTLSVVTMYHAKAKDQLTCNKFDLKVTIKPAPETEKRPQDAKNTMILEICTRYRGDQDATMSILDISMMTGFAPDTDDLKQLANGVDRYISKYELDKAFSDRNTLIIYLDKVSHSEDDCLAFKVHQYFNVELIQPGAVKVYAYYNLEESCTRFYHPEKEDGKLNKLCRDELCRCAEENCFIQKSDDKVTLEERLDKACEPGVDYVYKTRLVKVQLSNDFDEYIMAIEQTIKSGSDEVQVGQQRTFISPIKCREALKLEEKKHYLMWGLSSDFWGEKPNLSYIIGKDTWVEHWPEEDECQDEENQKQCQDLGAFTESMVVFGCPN
For the variant R1215Q, the “effect of a mutation on the interaction” value is “decreasing interaction”.

Consider R1203S, for which the “effect of a mutation on the interaction” value is on record as “decreasing interaction”.

For R1182S, the “effect of a mutation on the interaction” value was “decreasing interaction”.

Turning to D1119G, the “effect of a mutation on the interaction” value is listed as “disrupting interaction”.

(Values after IntAct's records for PubMed 21317894.)
